Laboratory results taken from patent publication US20240279618A1, “RECEPTOR TYROSINE KINASE AGONIST, COMPOSITION FOR CELL CULTURE MEDIUM, AND […] MAINTENANCE COMPOSITION” (SEKISUI CHEMICAL CO., LTD., priority 2021, published 2024).

What was measured:
[1] = system: iPS cells (253G1 cells); test: iPS cell culture: evaluation of preservation stability; type: cell-based, human; conditions: stock preserved 3 or 4 weeks at 4° C. versus −80° C.; 20 ng/mL
Description: Basic FGF and VHH stocks were collected in a 1.5 mL microtube 3 or 4 weeks before culturing, and preserved in a refrigerator (4° C.). Hereinafter, all operations were the same as those in the cell growth evaluation procedure, except that for basic FGF and VHH, a medium was prepared so that the both were preserved at 20 ng/mL using both refrigeration (4° C.)- and freeze (−80° C.)-preservation conditions.

[2] = system: human bone marrow-derived MSC; test: MSC culture: evaluation of MSC markers by flow cytometry; type: cell-based; conditions: MSC fourth passage, 10% or 20% FBS; for CD90-expressing (positive) cells: over the concentrations tested
Description: On Day 5 after the initial seeding, D-PBS was added to the cells and removed by suction. 500 μL of TrypLE Express was added to each well and the mixture was left to stand in a CO2 incubator for 5 to 10 minutes. The cells were observed under a microscope, and in a case where it was possible to confirm that the cells had changed in morphology, a medium was added thereto, and the cells were recovered in a PP tube by pipetting, and centrifuged (300× g, 5 minutes). After the centrifugation, the supernatant was removed by suction, an appropriate amount of 1% BSA/PBS was added to the pellet, and the mixture was pipetted to form a suspension.
A part of the suspension was collected and the number of cells was evaluated with a cell counter. Dilution was performed with 1% of BSA/PBS, so that the concentration was 0.6 to 1.0× 10^6 cells/mL. 50 μL of the mixture was dispensed into a 2 mL tube, so that the concentration was 3 to 5×10^4 cells/tube.
Equal amounts of the suspension subjected to the cell counter and the antibody solution adjusted above were mixed, and the mixture was left to stand on ice for 30 minutes or longer with light shielded. 1% of BSA/PBS was added thereto, the mixture was centrifuged (400 to 600×g, 5 minutes), and then the supernatant was removed by suction. Then, 300 to 500 μL of 1% BSA/PBS was added thereto, and the pipetted sample was subjected to flow cytometric analysis using an Attune NxT Flow Cytometer (Thermo Fisher Scientific, Inc.).

[3] = system: phospho-p44/42 MAPK (Erk½); test: Agonist activity by In Cell ELISA in NIH3T3 cells; type: cell-based, mouse; conditions: 30 minutes stimulation, final dilution ratio 100-fold, relative to no stimulus = 1
Excerpt: In order to verify the agonist activity of the purified VHH (monomer), the expression level of phospho-p44/42 MAPK (Erk½) was […] by using an In Cell ELISA method. VHH (monomer) was allowed to act on the cells such that the final dilution ratio was 100-fold. In addition, as a positive control, FGF2 (fibroblast growth factor (basic) (FGF-basic/bFGF/FGF2), human, recombinant, animal-derived substance-free (154aa): product code 068-05384; manufactured by Fujifilm Wako Pure Chemical Corporation: final concentration: 100 ng/mL) was used. The experimental procedure was as described below.
A D-MEM (D6429, manufactured by Sigma-Aldrich Co., LLC) medium including a 10% fetal bovine serum (S0400, manufactured by BWT) and 1% Penicillin-Streptomycin Mixed Solution, 26253-84, manufactured by Nacalai Tesque, Inc.) was prepared, NIH3T3 (CRL1658, ATCC) was suspended therein, and the suspension was seeded on a 96-well plate for cell culture at 1× 10^4 cells/well and cultured overnight at 37° C. with light shielded in a 5% CO2 incubator. The medium in each well was removed and the inside of each well was washed with a serum-free medium. […]

With “FGF2: fibroblast growth factor (basic), human, recombinant (154aa), positive control; SEQ ID NO: 58 [reference compound]” the “growth performance of iPS cells with additive preserved at 4° C.” value [1] was “growth performance was significantly deteriorated”, the CD90-expressing cells ([2]; "at ng/mL" (figure not given)) was “less than 95%” and the “CD90-expressing (positive) cells” value [2] was “decreased in inverse proportion to the concentration”.

B1: VHH Clone #1: alpaca-derived VHH single-domain antibody (monomer) binding FGFR1, amino acid sequence SEQ ID NO: 17 (protein)
VHH: QLQLVESGGGSVQAGGSLRLSCAASRSLSRFNVWTWYRQAPVKQRELVASITKSGDTNYAESVKGRFIISRDDDKNTVYLQMNNLKSEDTGIYYCAGSYYSGSYLYPSPGGFSVWGQGTQVTVSS
modifications: VHH_Clone_#1
In the case of B1, the “agonist activity (expression level of phospho-p44/42 MAPK (Erk½))” value [3] is reported as “none of the VHHs (monomers) have an agonist activity”.

B2: #1-L4-#1: dimer of VHH #1 with linker L4 (GSEGKSSGSGSESKST), SEQ ID NO: 23 (protein)
VHH: QLQLVESGGGSVQAGGSLRLSCAASRSLSRFNVWTWYRQAPVKQRELVASITKSGDTNYAESVKGRFIISRDDDKNTVYLQMNNLKSEDTGIYYCAGSYYSGSYLYPSPGGFSVWGQGTQVTVSSGSEGKSSGSGSESKSTQLQLVESGGGSVQAGGSLRLSCAASRSLSRFNVWTWYRQAPVKQRELVASITKSGDTNYAESVKGRFIISRDDDKNTVYLQMNNLKSEDTGIYYCAGSYYSGSYLYPSPGGFSVWGQGTQVTVSS
modifications: #1-L4-#1
With B2 the “growth performance of iPS cells with additive preserved at 4° C.” value [1] was “exhibited growth performance similar to that of VHH preserved at −80 °C” and the “CD90-expressing (positive) cells” value [2] was no less than 97%.

B3: VHH Clone #2: alpaca-derived VHH single-domain antibody (monomer) binding FGFR1, amino acid sequence SEQ ID NO: 18 (protein)
VHH: QVQLVESGGGLVQAGGSLRLSCAVPGSIFRFNTMGWYRQPPGKQRELVAQMSRGGITKYGDSVKGRFTITRDNAKNTVHLQMNSLKPEDTAVYYCAGSYYSGSYYYPSPQGFSVWGQGTQVTVSP
modifications: VHH_Clone_#2
With B3 the “agonist activity (expression level of phospho-p44/42 MAPK (Erk½))” value [3] was “none of the VHHs (monomers) have an agonist activity”.
